Measurements: EP4389150A1, “CONJUGATE COMPOUNDS AND THEIR USE IN CANCER TREATMENT AND DIAGNOSIS” (Technische Universität München, priority 2022, dated 2024)
Read-outs that look alike come from different tables or passages of the source. Where a SMILES comes first, the peptide text is derived from it. [ ]: non-standard residue; d: D form. The star is where a group is joined. X1 = CN(Cc1ccc(-c2[nH]c3cc(F)cc4c3c2CCNC4=O)cc1)C(=O)CCS*; EuK = O=C(O)CC[C@H](NC(=O)N[C@@H](CCCCN*)C(=O)O)C(=O)O; Ahx = NCCCCCC(=O)O; Mpa = O=C(O)CCS

Tests used:
[1] = target: prostate-specific membrane antigen (PSMA) (UniProt Q04609); experiment: cell uptake of 68Ga-labelled ligand (0.4 nM) on LNCaP cells, gamma counting
[2] = target: prostate-specific membrane antigen (PSMA) (UniProt Q04609); experiment: competition with [68Ga]-PSMA-617 (0.4 nM) on LNCaP cells, 60 min on ice
LNCaP cells = experiment: Binding and internalization (cell uptake) of 68Ga-labelled PSMA ligands in LNCaP cells; assay type: cell-based
Method: To determine ligand internalization, LNCaP cells were seeded in a 96 V-bottom well plate at a density of 100,000 cells/well in 5% BSA (w/v)/RPMI medium (100 µL/well) and incubated for 30 min at 37 °C. Afterwards, solutions (25 µL/well) of either 5% BSA (w/v)/RPMI medium or of 2-PMPA (final concentration: 10 µM) in 5% BSA (w/v)/RPMI medium for blockade were added. Then, a solution of the ^68Ga-labeled PSMA-ligand (25 µL/well; 0.4 nM final concentration; AM = 26-30 MBq/nmol) was added to all wells, and the cells were incubated for 5, 15, 30, and 60 min, respectively, at 37 °C. Hereby, each time point was performed in triplicates and each experiment was repeated three times. The internalization process was terminated by placing the plate for 5 min on ice. The free radioligand was obtained by centrifugation of the plate at 600 g for 3 min and removal of the supernatant. Each well was then washed with ice-cold PBS and the fractions of the first two steps were combined. For removal of cell-bound PSMA-ligand, the cells were treated in a next step with ice-cold 2-PMPA-solution (10 µM in PBS; 150 µL/well; 15 min on ice), centrifuged (600 g, 3 min), and washed with ice-cold PBS (150 µL/well). The fractions were again combined. For the analysis of internalized radioligand, the fractions of a 1.0 N NaOH (150 µL/well; 10 min on ice) treatment as well as a concomitant washing step with 1.0 N NaOH (150 µL/well) were pooled. Free, surface bound, and internalized activity, respectively, was measured in a γ-counter.

[3] = tested on: PC3-PIP/PC3-flu bilateral tumor model; assay type: in vivo, Athymic nude mice; settings: for biodistribution profile: 1 h post-injection; for tumor uptake (PET/CT, biodistribution): PSMA+ PC3-PIP versus PSMA- PC3-Flu tumors
[4] = Lipophilicity, n-octanol/PBS distribution coefficient; assay type: physicochemical
Method: Lipophilicity of the conjugates was determine after radiolabeling with ^68Ga. The PSMA ligand (0.80 MBq) was dissolved in PBS (500 µL/pH 7.4) in a reaction vial (1.5 mL; n = 10). Afterwards, n-octanol was added (500 µL) and the mixture was rigorously vortexed for 3 min. Subsequent centrifugation (Biofuge 15, Heraus Sepatech, Osterode, Germany) at 13,000 rpm for 5 min led to a phase separation. After measuring 100 µL of each phase in a γ-counter, the distribution coefficient (logD(O/PBS)) was calculated with Microsoft Excel.

PSMA = target: T1, PSMA (Homo sapiens, UniProt Q04609); experiment: IC50 determination by competition with [68Ga]-PSMA-617 on LNCaP cells; assay type: binding; settings: [68Ga]-PSMA-617 0.4 nM, 60 min on ice, natGa-labelled ligands
T1 construct: endogenous in cells; host or cells: LNCaP cells
Method: In the meantime, dilution series of the compounds were prepared in 1% BSA (w/v)/HBSS in a separate 96 U-bottom deep well plate ranging from 12 µM to 153.6 pM in 1:5 dilution steps. Next, solutions (25 µL/well) of either 1% BSA (w/v)/HBSS (control) or of the respective dilution series were transferred to the LNCaP cells containing plate. Hereby, each concentration was pipetted in triplicates and each experiment was repeated three times. Subsequently, [^68Ga]-PSMA-617 (25 µL/well; 0.4 nM final concentration; AM = 26-30 MBq/nmol) in 1% BSA (w/v)/HBSS was added to all wells and the plate was incubated for 60 min on ice. Afterwards, the experiment was terminated by centrifugation at 600 g for 3 min and removal of the supernatant. The cells were then washed with ice-cold HBSS (150 µL/well), centrifuged (600 g, 3 min), and the supernatant as well as the washing fraction were combined, representing the amount of free, unbound radioligand. Bound radioligand was obtained by lysis of the cells with 1.0 N NaOH (150 µL/well; 10 min on ice). Afterwards, the plate was washed a second time with 1.0 N NaOH (150 µL/well). Hereby, the washing step was combined with the NaOH fraction. The quantification of bound and free radioligand was finally accomplished via measuring the samples in a γ-counter.

Serum stability = assay type: in vitro ADME; settings: 37 °C
Method: For serum stability analysis, 13.5 µL human serum were mixed with 1.5 µL of an aqueous solution of the test compound (200 µM final concentration) and incubated at 37 °C for 0.5, 1, 2, and 24 h, respectively. Afterwards, 25.0 µL MeCN were added, the suspension was centrifuged (14,000 rpm, 30 min, 4 °C), the supernatant was recovered, and finally analyzed by HPLC-ESI-MS using a linear elution gradient from 10 to 95% (v/v) MeCN/0.1% (v/v) TFA in water/0.1% (v/v) TFA for 15 min.

[5] = 68Ga-labelled, 2 nmol via tail vein, 60 min p.i.

T1 sequence (Q04609 whole entry): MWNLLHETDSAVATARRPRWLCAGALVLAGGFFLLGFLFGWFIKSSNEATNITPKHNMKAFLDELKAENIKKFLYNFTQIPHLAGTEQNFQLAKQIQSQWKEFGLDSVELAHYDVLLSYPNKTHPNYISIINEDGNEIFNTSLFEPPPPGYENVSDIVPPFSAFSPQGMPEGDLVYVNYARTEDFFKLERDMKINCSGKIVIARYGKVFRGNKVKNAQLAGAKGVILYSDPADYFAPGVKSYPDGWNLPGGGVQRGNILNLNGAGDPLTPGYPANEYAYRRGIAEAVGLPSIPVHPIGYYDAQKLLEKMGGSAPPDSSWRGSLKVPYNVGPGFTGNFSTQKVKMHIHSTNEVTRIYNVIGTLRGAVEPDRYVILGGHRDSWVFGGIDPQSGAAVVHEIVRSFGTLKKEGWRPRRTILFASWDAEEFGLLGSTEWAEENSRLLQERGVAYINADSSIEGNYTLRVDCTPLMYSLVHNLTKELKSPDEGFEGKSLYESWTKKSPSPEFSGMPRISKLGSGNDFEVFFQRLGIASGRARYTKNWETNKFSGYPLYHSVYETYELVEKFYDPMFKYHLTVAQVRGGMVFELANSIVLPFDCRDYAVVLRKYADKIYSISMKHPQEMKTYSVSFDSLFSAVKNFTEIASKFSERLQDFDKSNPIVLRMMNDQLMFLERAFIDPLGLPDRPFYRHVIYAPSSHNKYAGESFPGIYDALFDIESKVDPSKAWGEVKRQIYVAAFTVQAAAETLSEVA
Chain of prostate-specific membrane antigen (PSMA) (Q04609 whole entry): as above

Molecule | % bound of total applied dose [1] [%] | IC50 [2] [nM] | IC50 (PSMA) [nM] | further results
PSMARuc-11: DOTAGA-D-Lys(Ruc-SS)-D-Asp-D-Tyr-D-Phe-L-Nal-Ahx-KuE (peptide) | 6.45 | 5.34 | – | –
Ruc-SS-TXA-L-Nal-KuE (PSMARuc-7) (peptide) | – | 9.52 | – | –
CN(Cc1ccc(-c2[nH]c3cc(F)cc4c3c2CCNC4=O)cc1)C(=O)CCSSCCC(=O)NCCCC[C@@H](NC(=O)CCC(C(=O)O)N1CCN(CC(=O)O)CCN(CC(=O)O)CCN(CC(=O)O)CC1)C(=O)N[C@H](CC(=O)O)C(=O)NCCC(=O)NC[C@H]1CC[C@H](C(=O)N[C@@H](Cc2ccc3ccccc3c2)C(=O)NCCCC[C@H](NC(=O)N[C@@H](CCC(=O)O)C(=O)O)C(=O)O)CC1 (some centres unmarked) [Conjugate 9] | – | – | 3.03 ± 0.2 | % bound of total applied dose (LNCaP cells): 8.00 ± 1.27%; biodistribution profile ([3]; 68Ga-labelled): uptake is limited to PSMA+ tumors and kidneys; logD ([4]; pH 7.4): -2.1 ± 0.24
CN(Cc1ccc(-c2[nH]c3cc(F)cc4c3c2CCNC4=O)cc1)C(=O)CCSSCCC(=O)N[C@H](CC(=O)O)C(=O)N[C@H](Cc1ccc(O)cc1)C(=O)N[C@H](Cc1ccccc1)C(=O)N[C@H](Cc1ccccc1)C(=O)NCCCCCC(=O)NCCCC[C@H](NC(=O)N[C@@H](CCC(=O)O)C(=O)O)C(=O)O [Conjugate 8] ([Mpa](X1)[dD][dY][dF][dF][Ahx]-EuK) | – | – | 1.58 ± 0.94 | logD (n-oct/PBS) ([4]; pH 7.4): -2.83 ± 0.07
PSMARuc-15: Ruc-SS-MMC-D-Asp-D-Asp-D-Tyr-D-Phe-D-Phe-Ahx-Ahx-KuE (peptide) | 6.5 | 4.28 | – | –
PSMARuc-18: Ruc-SS-MMC-D-Asp-D-Asp-β-Ala-TXA-L-Nal-D-Lys-EuE (peptide) | 6.54 | 0.69 | – | –
PSMARuc-17: DOTAGA-D-Lys(Ruc-SS)-D-Asp-D-Asp-D-Tyr-D-Phe-D-Phe-Ahx-D-Lys-EuE (peptide) | 5.84 | 1.38 | – | –
CN(Cc1ccc(-c2[nH]c3cc(F)cc4c3c2CCNC4=O)cc1)C(=O)CCSSCCC(=O)NCCCC[C@@H](NC(=O)CCC(C(=O)O)N1CCN(CC(=O)O)CCN(CC(=O)O)CCN(CC(=O)O)CC1)C(=O)N[C@H](CC(=O)O)C(=O)N[C@H](Cc1ccc(O)cc1)C(=O)N[C@H](Cc1ccccc1)C(=O)N[C@@H](Cc1ccc2ccccc2c1)C(=O)NCCCCCC(=O)NCCCC[C@H](NC(=O)N[C@@H](CCC(=O)O)C(=O)O)C(=O)O (single isomer, unassigned) [Conjugate 11] | – | – | 5.34 ± 1.45 | stable (intact) after incubation in human serum (Serum stability; 2 hours): 93%; intact after incubation in human serum (Serum stability; 24 hours): 74%; % bound of total applied dose (LNCaP cells): 6.45 ± 1.16%; biodistribution profile ([3]; 68Ga-labelled): uptake limited to PSMA-expressing tumors and kidneys; tumor uptake (PET/CT, biodistribution) ([3]; 60 min p.i.): uptake in PSMA+ PC3-PIP tumors and no accumulation in PSMA- PC3-Flu tumors; logD ([4]; pH 7.4): -3.11 ± 0.08
PSMARuc-9: DOTAGA-D-Lys(Ruc-SS)-D-Asp-β-Ala-TXA-L-Nal-KuE (peptide) | 8 | 3.03 | – | –
PSMARuc-13: DOTAGA-D-Lys(Ruc-Sub)-D-Asp-β-Ala-TXA-L-Nal-KuE (peptide) | 10.8 | 0.67 | – | –
PSMARuc-12: DOTAGA-D-Lys(Ruc-SS)-D-Asp-D-Tyr-D-Phe-D-Phe-Ahx-Ahx-KuE (peptide) | 3.48 | 2.12 | – | –
O=C(O)CC[C@H](NC(=O)N[C@@H](CCCCNC(=O)[C@H](Cc1ccc2ccccc2c1)NC(=O)[C@H]1CC[C@H](CNC(=O)CN2CCN(CC(=O)O)CCN(CC(=O)O)CCN(CC(=O)O)CC2)CC1)C(=O)O)C(=O)O [PSMA-617] | – | – | 1.75 ± 0.16 | % bound of total applied dose (LNCaP cells; 60 min incubation with 0.4 nM 68Ga-labelled conjugates): 10.23 ± 0.86%; logD ([4]; n-octanol/PBS pH 7.4, after radiolabeling with 68Ga, read-out: logD (n-oct/PBS)): -3.62 ± 0.49
CN(Cc1ccc(-c2[nH]c3cc(F)cc4c3c2CCNC4=O)cc1)C(=O)CCSSCCC(=O)NCCCCN1CCN(CC(=O)O)CCN(C(CCC(=O)N[C@H](CC(=O)O)C(=O)N[C@H](CC(=O)O)C(=O)NCCC(=O)NC[C@H]2CC[C@H](C(=O)N[C@@H](Cc3ccc4ccccc4c3)C(=O)NCCCC[C@@H](NC(=O)CC[C@H](NC(=O)N[C@@H](CCC(=O)O)C(=O)O)C(=O)O)C(=O)O)CC2)C(=O)O)CCN(CC(=O)O)CC1 (single isomer, unassigned) [Conjugate 18] | – | – | – | PiP/muscle ratios [3, 5]: > 25; PiP:Flu ratios [3, 5]: > 8; tumor uptake (PET/CT, biodistribution) ([3]; 60 min p.i.): selective uptake in PC3-PiP tumors and low uptake in PC3-Flu tumors and other organs

Continued, in another order:

% bound of total applied dose [1] [%] | IC50 [2] [nM] | IC50 (PSMA) [nM] | Molecule | further results
– | 1.58 | – | Ruc-SS-D-Asp-D-Tyr-D-Phe-D-Phe-Ahx-KuE (PSMARuc-8) (peptide) | –
6.18 | 1.34 | – | PSMARuc-10: DOTAGA-D-Lys(Ruc-SS)-D-Asp-D-Tyr-D-Phe-D-Phe-Ahx-KuE (peptide) | –
– | – | 9.52 ± 2.41 | CN(Cc1ccc(-c2[nH]c3cc(F)cc4c3c2CCNC4=O)cc1)C(=O)CCSSCCC(=O)NC[C@H]1CC[C@H](C(=O)N[C@@H](Cc2ccc3ccccc3c2)C(=O)NCCCC[C@H](NC(=O)N[C@@H](CCC(=O)O)C(=O)O)C(=O)O)CC1 [Conjugate 7] | logD (n-oct/PBS) ([4]; pH 7.4): -2.98 ± 0.21
– | – | 2.19 ± 0.37 | CN(Cc1ccc(-c2[nH]c3cc(F)cc4c3c2CCNC4=O)cc1)C(=O)CCSSCCC(=O)NCCCCN1CCN(CC(=O)O)CCN(C(CCC(=O)N[C@H](CC(=O)O)C(=O)N[C@H](CC(=O)O)C(=O)NCCC(=O)NC[C@H]2CC[C@H](C(=O)N[C@@H](Cc3ccc4ccccc4c3)C(=O)NCCCC[C@H](NC(=O)N[C@@H](CCC(=O)O)C(=O)O)C(=O)O)CC2)C(=O)O)CCN(CC(=O)O)CC1 (some centres unmarked) [Conjugate 14] | % bound of total applied dose (LNCaP cells): 6.46 ± 0.98%; logD ([4]; pH 7.4): -3.42 ± 0.15
– | – | 4.28 ± 0.95 | CN(Cc1ccc(-c2[nH]c3cc(F)cc4c3c2CCNC4=O)cc1)C(=O)CCSSCCC(=O)NCCCCN1CCN(CC(=O)O)CCN(C(CCC(=O)N[C@H](CC(=O)O)C(=O)N[C@H](CC(=O)O)C(=O)N[C@H](Cc2ccc(O)cc2)C(=O)N[C@H](Cc2ccccc2)C(=O)N[C@H](Cc2ccccc2)C(=O)NCCCCCC(=O)NCCCCCC(=O)NCCCC[C@H](NC(=O)N[C@@H](CCC(=O)O)C(=O)O)C(=O)O)C(=O)O)CCN(CC(=O)O)CC1 (some centres unmarked) [Conjugate 15] | % bound of total applied dose (LNCaP cells): 6.50 ± 0.50%; logD ([4]; pH 7.4): -3.4 ± 0.07
6.46 | 2.19 | – | PSMARuc-14: Ruc-SS-MMC-D-Asp-D-Asp-β-Ala-TXA-L-Nal-KuE (peptide) | –
10.2 | – | – | PSMA-617 | –
5.32 | 0.82 | – | PSMARuc-16: DOTAGA-D-Lys(Ruc-SS)-D-Asp-D-Asp-β-Ala-TXA-L-Nal-D-Lys-EuE (peptide) | –
